Patent US20110065633A1, “ESTER-BASED PEPTIDE PRODRUGS” (INDIANA UNIVERSITY RESEARCH AND TECHNOLOGY CORPORATION, priority 2008, published 2011)
Where no end group is shown, it is not given here. Side-chain parts run from the residue outwards. [ ]: non-standard residue; d: D form. The star is where a group is joined. Desaminohistidyl = O=C(CCc1c[nH]cn1)*; PLA = phenyl lactic acid; Aib = CC(C)(N)C(=O)O

How the values were obtained:
GLP-1 receptor [1] = target: T1, GLP-1 receptor (Homo sapiens, UniProt P43220); assay: Luciferase-based reporter gene assay for cAMP detection, GLP-1 receptor; type: cell-based; parameters: expressed in transfected cells; host or cells: HEK293; conditions: for Potency compared with native GLP-1: luciferase assay, in vitro
Target sequence in this assay (P43220 24-463, species assumed): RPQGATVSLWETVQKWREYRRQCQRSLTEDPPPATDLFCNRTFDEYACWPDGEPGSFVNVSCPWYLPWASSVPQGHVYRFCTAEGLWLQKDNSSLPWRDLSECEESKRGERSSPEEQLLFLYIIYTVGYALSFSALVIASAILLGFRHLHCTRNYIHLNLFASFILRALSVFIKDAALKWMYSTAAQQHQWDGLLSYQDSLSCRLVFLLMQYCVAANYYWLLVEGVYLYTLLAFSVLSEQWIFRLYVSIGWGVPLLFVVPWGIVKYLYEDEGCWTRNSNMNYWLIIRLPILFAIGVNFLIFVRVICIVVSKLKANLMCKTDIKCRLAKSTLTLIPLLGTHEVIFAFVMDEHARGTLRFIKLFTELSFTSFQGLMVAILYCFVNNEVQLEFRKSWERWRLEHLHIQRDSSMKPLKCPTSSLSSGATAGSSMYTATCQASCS

[2] = test system: diabetes-induced obesity (DIO) mice; assay: Blood glucose after glucose injection in DIO mice; type: in vivo; conditions: for blood glucose after glucose injection compared with corresponding non-prodrug form: 2 nmol/kg intraperitoneally 15 min before […] glucose, FIGS. 12, 13; for blood glucose concentrations compared with vehicle control: 15 or 70 nmol/kg intraperitoneally 60 min before […] glucose, FIG. 15
Description: Six groups of diabetes-induced obesity (DIO) mice (eight mice per group) having an initial average body weight of 49.5 g were intraperitoneally injected with 2 nmol/kg of a PBS vehicle control or one of Peptides A-E described below:
(§1) Fifteen minutes after injection with one of the compounds or with vehicle control (at time point 0), a 25% (w/v) glucose saline solution was injected at a dose of 1.5 g per kg of body weight. Blood glucose concentrations of the mice were measured at the time of injection of the compound or vehicle control, at the time of glucose injection, and at 15, 30, 60, and 120 minutes after glucose injection.
Blood glucose levels of the mice were measured as described in Example 5.
(§2) Nine groups of diabetes-induced obesity (DIO) mice (8 mice per group) having an initial average body weight of 56 g were intraperitoneally injected once and followed for one week with 15 or 70 nmol/kg of Peptides Y, Z, F-Peg, and G-Peg described below or PBS vehicle control.
as §1, with “Sixty” for “Fifteen”, “peptides” for “compounds”, “peptide” for “compound”, “control (at time point −60),” for “control,”, “injection (at time point 0),” for “injection,”

[3] = test system: diabetes-induced obesity (DIO) mice; assay: Body weight and food intake of DIO mice over one week; type: in vivo; conditions: single injection 15 or 70 nmol/kg; for total food intake: FIG. 17; for total efficacy as measured over a week study: prodrug versus non-prodrug
Description: as §2
The body weight of each mouse of each group was measured on 1, 3, 5, and 7 days after injection with the vehicle control or peptide. Total change in body weight was calculated by substracting the average body weight of a group at the time of injection with vehicle or peptide from the average body weight of the group seven days after injection. Food intake by each group of mice was measured during the course of the week as well. Total food intake was measured seven days after injection with vehicle control or peptide. […] The Ser11 substitution or the des-amino His7 reduces total efficacy.

glucagon receptor [4] = target: glucagon receptor (UniProt P47871); assay: cell-based or functional assay
glucagon receptor [5] = target: glucagon receptor (UniProt P47871); assay: cell-based or functional assay; remark: listed apart in the source
GLP-1 receptor [6] = target: T1, GLP-1 receptor; assay: cell-based or functional assay
Target sequence in this assay (P43220 24-463 limits assumed): as the sequence (P43220 24-463, species assumed) above

GLP-1 receptor [7] = target: GLP-1 receptor (UniProt P43220 24-463, limits assumed); assay: cell-based or functional assay

Chain of glucagon receptor (P47871 26-477 limits assumed): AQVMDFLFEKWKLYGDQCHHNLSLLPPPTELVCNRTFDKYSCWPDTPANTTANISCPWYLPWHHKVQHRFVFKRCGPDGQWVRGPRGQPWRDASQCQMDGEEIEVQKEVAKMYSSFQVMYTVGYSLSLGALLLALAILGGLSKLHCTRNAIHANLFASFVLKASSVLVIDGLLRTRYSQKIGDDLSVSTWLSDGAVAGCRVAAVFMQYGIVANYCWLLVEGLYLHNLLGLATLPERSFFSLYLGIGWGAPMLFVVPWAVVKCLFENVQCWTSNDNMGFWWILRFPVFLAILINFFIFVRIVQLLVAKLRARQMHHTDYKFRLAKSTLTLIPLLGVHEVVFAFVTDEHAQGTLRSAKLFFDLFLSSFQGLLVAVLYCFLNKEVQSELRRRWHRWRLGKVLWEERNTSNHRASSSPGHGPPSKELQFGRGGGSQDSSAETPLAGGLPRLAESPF

Molecule: F^7,GLP(8-37): aa 7-37 of GLP-1 with the His at position 7 replaced with Phe (FAEGTFTSDVSSYLEGQAAKEFIAWLVKGRG; Glucagon-like peptide 1(7-37); UniProt P01275 98-128, looked up, variant H7F)
- Agonist character (GLP-1 receptor [1]): full agonist
- potency of native GLP-1 (GLP-1 receptor [1]; percent of the potency of native GLP / GLP-1): 10%

Molecule: Peptide G: prodrug of Peptide F, d-Phe-dVal ester-linked to the Ser at position 2 of Peptide F ([Desaminohistidyl]S([dV-dF])EGTFTSDVSSYLEEQAAKEFIAWLVKGRPSSGAPPPS-NH2; SMILES CC[C@H](C)[C@H](NC(=O)[C@H](Cc1ccccc1)NC(=O)[C@H](CCC(=O)O)NC(=O)[C@H](CCCCN)NC(=O)[C@H](C)NC(=O)[C@H](C)NC(=O)[C@H](CCC(N)=O)NC(=O)[C@H](CCC(=O)O)NC(=O)[C@H](CCC(=O)O)NC(=O)[C@H](CC(C)C)NC(=O)[C@H](Cc1ccc(O)cc1)NC(=O)[C@H](CO)NC(=O)[C@H](CO)NC(=O)[C@@H](NC(=O)[C@H](CC(=O)O)NC(=O)[C@H](CO)NC(=O)[C@@H](NC(=O)[C@H](Cc1ccccc1)NC(=O)[C@@H](NC(=O)CNC(=O)[C@H](CCC(=O)O)NC(=O)[C@H](COC(=O)[C@H](NC(=O)[C@H](N)Cc1ccccc1)C(C)C)NC(=O)CCc1c[nH]cn1)[C@@H](C)O)[C@@H](C)O)C(C)C)C(=O)N[C@@H](C)C(=O)N[C@@H](Cc1c[nH]c2ccccc12)C(=O)N[C@@H](CC(C)C)C(=O)N[C@H](C(=O)N[C@@H](CCCCN)C(=O)NCC(=O)N[C@@H](CCCNC(=N)N)C(=O)N1CCC[C@H]1C(=O)N[C@@H](CO)C(=O)N[C@@H](CO)C(=O)NCC(=O)N[C@@H](C)C(=O)N1CCC[C@H]1C(=O)N1CCC[C@H]1C(=O)N1CCC[C@H]1C(=O)N[C@@H](CO)C(N)=O)C(C)C)
- blood glucose after glucose injection compared with corresponding non-prodrug form [2]: higher than the blood glucose levels of mice injected with its corresponding non-prodrug form

Molecule: Peptide Z: pegylated (40 kDa) GLP-1-based prodrug, d-Phe-d-Val ester-linked to Ser at position 11 (H[Aib]EGS([dV-dF])FTSDVSSYLEEQAAKEFIC(PEG 40 kDa)WLVKGRPSSGAPPPS-NH2)
- blood glucose concentrations compared with vehicle control [2]: less as compared to the blood glucose levels of mice injected with vehicle control
- total food intake ([3]; seven days): decreased

Molecule: Glucagon (6-CEX) analog [PLA6, E9, E16K20(Lactam)] (peptide)
- Glucagon IC50 (glucagon receptor [4]): 20 nM

Molecule: Peptide G-Peg: pegylated prodrug, d-Phe-d-Val ester-linked to the Ser at position 8 ([Desaminohistidyl]S([dV-dF])EGTFTSDVSSYLEEQAAKEFIC(PEG 40 kDa)WLVKGRPSSGAPPPS-NH2)
- blood glucose concentrations compared with vehicle control [2]: less as compared to the blood glucose levels of mice injected with vehicle control
- total efficacy as measured over a week study [3]: comparable
- total food intake ([3]; seven days): decreased

Molecule: HAEGTFTSDVSSYLEGQAAKEFIAWLVKGRGKRNRNNIA [GLP-oxyntomodulin, GLP-oxyntomodulin chimeric peptide]
- Potency compared with native GLP-1 (GLP-1 receptor [1]): at least as potent as the native GLP-1 peptide

Molecule: Peptide E: prodrug of Peptide D, d-Phe-d-Val ester-linked to Ser at position 11 (H[Aib]EGS([dV-dF])FTSDVSSYLEEQAAKEFIAWLVKGRPSSGAPPPS-NH2; N-terminus assumed; SMILES CC[C@H](C)[C@H](NC(=O)[C@H](Cc1ccccc1)NC(=O)[C@H](CCC(=O)O)NC(=O)[C@H](CCCCN)NC(=O)[C@H](C)NC(=O)[C@H](C)NC(=O)[C@H](CCC(N)=O)NC(=O)[C@H](CCC(=O)O)NC(=O)[C@H](CCC(=O)O)NC(=O)[C@H](CC(C)C)NC(=O)[C@H](Cc1ccc(O)cc1)NC(=O)[C@H](CO)NC(=O)[C@H](CO)NC(=O)[C@@H](NC(=O)[C@H](CC(=O)O)NC(=O)[C@H](CO)NC(=O)[C@@H](NC(=O)[C@H](Cc1ccccc1)NC(=O)[C@H](COC(=O)[C@H](NC(=O)[C@H](N)Cc1ccccc1)C(C)C)NC(=O)CNC(=O)[C@H](CCC(=O)O)NC(=O)C(C)(C)NC(=O)[C@@H](N)Cc1c[nH]cn1)[C@@H](C)O)C(C)C)C(=O)N[C@@H](C)C(=O)N[C@@H](Cc1c[nH]c2ccccc12)C(=O)N[C@@H](CC(C)C)C(=O)N[C@H](C(=O)N[C@@H](CCCCN)C(=O)NCC(=O)N[C@@H](CCCNC(=N)N)C(=O)N1CCC[C@H]1C(=O)N[C@@H](CO)C(=O)N[C@@H](CO)C(=O)NCC(=O)N[C@@H](C)C(=O)N1CCC[C@H]1C(=O)N1CCC[C@H]1C(=O)N1CCC[C@H]1C(=O)N[C@@H](CO)C(N)=O)C(C)C)
- blood glucose after glucose injection compared with corresponding non-prodrug form [2]: higher than the blood glucose levels of mice injected with the corresponding non-prodrug forms

Molecule: Peptide A: prodrug of Peptide B, dipeptide d-Phe-dPhe attached via the O-terminus ({dF-dF-PLA}-[Aib]EGTFTSDVSSYLEEQAAKEFIAWLVKGRPSSGAPPPS-NH2; also: PLA bonded to D-Phe via an ester bond)
- blood glucose after glucose injection compared with corresponding non-prodrug form [2]: higher than the blood glucose levels of mice injected with the corresponding non-prodrug forms

Molecule: Glucagon (6-CEX) analog E9, E16K20(lactam) (peptide)
- Glu IC50 (glucagon receptor [5]): 42 nM
- GLP-1 EC50 (GLP-1 receptor [6]): 36 nM
- Glucagon IC50 (glucagon receptor [4]): 42 nM

Molecule: Glucagon (6-CEX) analog E9, K12E16(lactam) (peptide)
- Glu IC50 (glucagon receptor [5]): 2010 nM
- GLP-1 EC50 (GLP-1 receptor [6]): 63 nM
- Glucagon IC50 (glucagon receptor [4]): 2010 nM

Molecule: Peptide Y: GLP-1 with AIB at 8, Glu at 22, Cys at 30 linked to 40 kDa PEG, Exendin 4 extension (H[Aib]EGTFTSDVSSYLEEQAAKEFIC(PEG 40 kDa)WLVKGRPSSGAPPPS-NH2)
- blood glucose concentrations compared with vehicle control [2]: less as compared to the blood glucose levels of mice injected with vehicle control
- total food intake ([3]; seven days): decreased
- potency in decreasing appetite and decreasing body weight ([3]; seven days, FIGS. 16, 17): most potent of the four peptides

Molecule: Glucagon (6-CEX) analog E9, K12, E16 (peptide)
- Glu IC50 (glucagon receptor [5]): 762 nM
- Glucagon IC50 (glucagon receptor [4]): 762 nM

Molecule: Peptide C: prodrug of Peptide B, dipeptide d-Phe-d-Val attached via the O-terminus ({dF-dV-PLA}-[Aib]EGTFTSDVSSYLEEQAAKEFIAWLVKGRPSSGAPPPS-NH2; also: PLA bonded to D-Val via an ester bond)
- blood glucose after glucose injection compared with corresponding non-prodrug form [2]: higher than the blood glucose levels of mice injected with the corresponding non-prodrug forms

Molecule: Peptide F-Peg: Peptide F analog with Cys at 30 covalently linked to a 40 kDa PEG ([Desaminohistidyl]SEGTFTSDVSSYLEEQAAKEFIC(PEG 40 kDa)WLVKGRPSSGAPPPS-NH2)
- blood glucose concentrations compared with vehicle control [2]: less as compared to the blood glucose levels of mice injected with vehicle control
- total efficacy as measured over a week study [3]: comparable
- total food intake ([3]; seven days): decreased

Molecule: Glucagon (6-CEX) analog [PLA6, E9, K12E16(Lactam) (peptide)
- Glu IC50 (glucagon receptor [5]): 72 nM
- GLP-1 EC50 (GLP-1 receptor [6]): 6 nM
- Glucagon IC50 (glucagon receptor [4]): 72 nM

Molecule: H^7AEGTFTSDVSSYLEGQAAKEFIAWLVKGXPSSGAPPPS-amide [GLP(7-36)-CEX amide]
- Potency compared with native GLP-1 (GLP-1 receptor [1]): approximately ten times more potent in vitro than the native GLP-1 sequence

Molecule: HO-F^5F^6-O-F^7,GLP(8-36)-CEX (peptide)
- % potency with respect to parent; before incubation (GLP-1 receptor [6]): 3.7%
- % potency with respect to parent; prodrug incubated in PBS for 24 hrs before the assay (GLP-1 receptor [6]): 17.2%

Molecule: G^5V^6-O-F^7,GLP(8-36)CEX (peptide)
- % potency with respect to parent; before incubation (GLP-1 receptor [6]): 10.9%
- % potency with respect to parent; prodrug incubated in PBS for 24 hrs before the assay (GLP-1 receptor [6]): 46%
- % potency with respect to parent; prodrug incubated in PBS for 168 hrs before the assay (GLP-1 receptor [6]): 95.8%

Molecule: HO-FAEGTFTSDVSSYLEGQAAKEFIAWLVKGXPSSGAPPPS [HO—F^7,GLP(8-36)-CEX]
- % potency with respect to parent (GLP-1 receptor [1]; Table 7, before incubation (0 hrs), parent drug as such): 100% (parent drug)
- Potency compared with native GLP-1 (GLP-1 receptor [1]): at least as potent as the native GLP-1

Molecule: HSQGTFTSDYARYLDARRAREFIKWLVRGRG [ANK2 (Bayer peptide)]
- GLP-1 EC50 (GLP-1 receptor [7]): 0.28 nM
